Results as given in paper PMC8612989 (Environmental microbiology reports, 2021).

Key:
[1] = test system: O=C1C[C@H](O)Cc2cc(O)cc(O)c21; experiment: purified protein; details: conditions not separately told (YWA1 assay: pH 6.0, 30 °C)
[2] = target: Ayg1p chain-shortening enzyme (Aspergillus fumigatus, UniProt Q9UVV1); experiment: T4HN production detected in yeast co-expressing alb1 and ayg1; format: cell-based; details: S. cerevisiae INVSc1-npgA, YWA1 formed in the cell by Alb1p; 30 °C
[3] = target: T1, Arp1p with His-tag (Arp1p-HT), Arp1p dehydratase of Aspergillus fumigatus (Aspergillus fumigatus (strain B-5233)), O14434; experiment: SEC; details: remark: other sources report otherwise
T1 chain: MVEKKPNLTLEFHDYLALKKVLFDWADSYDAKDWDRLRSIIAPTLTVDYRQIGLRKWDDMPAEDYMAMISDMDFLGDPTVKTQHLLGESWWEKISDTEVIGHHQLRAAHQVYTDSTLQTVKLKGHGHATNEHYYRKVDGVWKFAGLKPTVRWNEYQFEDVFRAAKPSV

In the case of “Arp1p (Arp1p-HT) dehydratase (Aspergillus fumigatus Af293)”, the Km [1] is reported as 15.7 µM and the kcat [1] is reported as 2.7 s⁻¹.

For CC1(O)CC(=O)c2c(cc3cc(O)cc(O)c3c2O)O1 (stereo not shown) [YWA1], the “T4HN production detected in yeast co-expressing alb1 and ayg1” value [2] was “co-transformed into yeast (S. cerevisiae INVSc1-npgA/pYES-alb1+p425-ayg1) and T4HN production was detected”.

B1: Arp1p with His-tag (Arp1p-HT), Arp1p dehydratase of Aspergillus fumigatus, O14434 1-168 (enzyme)
chain: MVEKKPNLTLEFHDYLALKKVLFDWADSYDAKDWDRLRSIIAPTLTVDYRQIGLRKWDDMPAEDYMAMISDMDFLGDPTVKTQHLLGESWWEKISDTEVIGHHQLRAAHQVYTDSTLQTVKLKGHGHATNEHYYRKVDGVWKFAGLKPTVRWNEYQFEDVFRAAKPSV
Molecule B1 has a stoichiometry N [3] of 3.
